First the molecules themselves.
B1: R2-23H2 (Fab, V domains shown)
VH: EVQLVESGGGLVQPGGSLRLSCAASGFTFSFYYLNWVRQAPGKGLEWVGDIRLKKNNYEKHYAESVKGRFTISRDDSKSITYLQMNSLRAEDTAVYYCAREGDYFDYWGQGTTVTVSS
VL: DIQLTQSPSSLSASVGDRVTITCRASESVDSFGATFMHWYQQKPGKAPKLLIYLASWLGSGVPSRFSGSGSGTDFTLTISSLQPEDFATYYCQQNNEDPYTFGQGTKLEIK
notes: Combinatorial mutant Fab of HAPC-14; also called combinatorial mutant No. 2
B2: R2-24H1 (Fab, V domains shown)
VH: B1 VH with K55S
VL: B1 VL with W57R, Q93V
notes: Combinatorial mutant Fab of HAPC-14; also called combinatorial mutant No. 8
B3: R2-26E4 (Fab, V domains shown)
VH: B1 VH
VL: B1 VL with W57R, Q93V
notes: Combinatorial mutant Fab of HAPC-14; also called combinatorial mutant No. 4
B4: R2-25G5 (Fab, V domains shown)
VH: B1 VH
VL: B1 VL with G59P, Q93V
notes: Combinatorial mutant Fab of HAPC-14; also called combinatorial mutant No. 3
B5: R2-23E10 (Fab, V domains shown)
VH: B1 VH with K55S
VL: B1 VL
notes: Combinatorial mutant Fab of HAPC-14; also called combinatorial mutant No. 12
B6: R2-27G7 (Fab, V domains shown)
VH: B1 VH
VL: B1 VL with W57R
notes: Combinatorial mutant Fab of HAPC-14; also called combinatorial mutant No. 6
B7: R2-22A10 (Fab, V domains shown)
VH: B1 VH
VL: B1 VL with W57R, G59E, Q93V
notes: Combinatorial mutant Fab of HAPC-14; also called combinatorial mutant No. 9
B8: R2-22B6 (Fab, V domains shown)
VH: B1 VH with K55S
VL: B1 VL with W57R
notes: Combinatorial mutant Fab of HAPC-14; also called combinatorial mutant No. 15
B9: R2-25B7 (Fab, V domains shown)
VH: B1 VH with K55S
VL: B1 VL with G59P, Q93V
notes: Combinatorial mutant Fab of HAPC-14; also called combinatorial mutant No. 5
B10: R2-29D9 (Fab, V domains shown)
VH: B1 VH with Y104T
VL: B1 VL with W57R, G59P, Q93V
notes: Combinatorial mutant Fab of HAPC-14; also called combinatorial mutant No. 7
B11: R2-24F3 (Fab, V domains shown)
VH: B1 VH
VL: B1 VL with Q93V
notes: Combinatorial mutant Fab of HAPC-14; Printed CDRs are the same as those of R2-32E6; also called combinatorial mutant No. 1
B12: R2-9C1 (Fab, V domains shown)
VH: B1 VH
VL: B1 VL with G59E, Q93V
notes: Combinatorial mutant Fab of HAPC-14; also called combinatorial mutant No. 16
B13: R2-32E6 (Fab, V domains shown)
VH: B1 VH
VL: B1 VL with Q93V
notes: Combinatorial mutant Fab of HAPC-14; Printed CDRs are the same as those of R2-24F3; also called combinatorial mutant No. 14
B14: R2-30F7 (Fab, V domains shown)
VH: B1 VH with K55S
VL: B1 VL with W57R, G59P, Q93V
notes: Combinatorial mutant Fab of HAPC-14; also called combinatorial mutant No. 11
B15: R2-24D4 (Fab, V domains shown)
VH: B1 VH with Y104T
VL: B1 VL with G59P
notes: Combinatorial mutant Fab of HAPC-14; also called combinatorial mutant No. 10
B16: HAPC-14-R1-1H1-F2 (Fab, V domains shown)
VH: B1 VH with K55S
VL: B1 VL with W57N, G59E
notes: Single-site mutant Fab of HAPC-14 in periplasmic extract
B17: HAPC-14-R1-3H4-C6 (Fab, V domains shown)
VH: B1 VH with F31N, K55S, Y104T
VL: B1 VL with W57N, G59E
notes: Single-site mutant Fab of HAPC-14
B18: HAPC-14-R1-2L4-B2 (Fab, V domains shown)
VH: B1 VH with F31N, K55S
VL: B1 VL with G59E
notes: as for B17
B19: HAPC-14-R1-2L6-F2 (Fab, V domains shown)
VH: B1 VH with F31N, K55S
VL: B1 VL with W57N, G59K
notes: Single-site mutant Fab of HAPC-14; inferred from the clone name (2L6, same site as E59G/P)
B20: HAPC-14-R1-2H6-C2 (Fab, V domains shown)
VH: B1 VH with F31N
VL: B1 VL with W57N, G59E
notes: as for B17
B21: HAPC-14-R1-2L4-D4 (Fab, V domains shown)
VH: B1 VH with F31N, K55S
VL: B1 VL with W57R, G59E
notes: as for B17
B22: HAPC-14-R1-2L4-G9 (Fab, V domains shown)
VH: B1 VH with F31N, K55S
VL: B1 VL with W57K, G59E
notes: Single-site mutant Fab of HAPC-14; inferred from the clone name (2L4, same site as N57R/W)
B23: HAPC-14-R1-3H7-F2 (Fab, V domains shown)
VH: B1 VH with F31N, K55S, Y107P
VL: B1 VL with W57N, G59E
notes: Single-site mutant Fab of HAPC-14; inferred from the clone name (3H7 = VH CDR3, 7th residue)
B24: HAPC-14-R1-1L7-B9 (Fab, V domains shown)
VH: B1 VH with F31N, K55S
VL: B1 VL with D30A, W57N, G59E
notes: Single-site mutant Fab of HAPC-14; inferred from the clone name (1L7 = VL CDR1, 7th residue, the only D of that CDR)
B25: HAPC-14-R1-2L4-A1 (Fab, V domains shown)
VH: B1 VH with F31N, K55S
VL: B1 VL with W57L, G59E
notes: as for B22
B26: HAPC-14-R1-3L1-D11 (Fab, V domains shown)
VH: B1 VH with F31N, K55S
VL: B1 VL with W57N, G59E, Q93W
notes: Single-site mutant Fab of HAPC-14; inferred from the clone name (3L1, same site as Q93V)
B27: HAPC-14-R1-3L1-G8 (Fab, V domains shown)
VH: B1 VH with F31N, K55S
VL: B1 VL with W57N, G59E, Q93V
notes: as for B17
B28: HAPC-14-R1-2L6-G1 (Fab, V domains shown)
VH: B1 VH with F31N, K55S
VL: B1 VL with W57N
notes: as for B17
B29: HAPC-14-R1-3H4-C5 (Fab, V domains shown)
VH: B1 VH with F31N, K55S, Y104S
VL: B1 VL with W57N, G59E
notes: Single-site mutant Fab of HAPC-14; inferred from the clone name (3H4 = VH CDR3, 4th residue, same site as Y104T)

Changes are numbered by the printed parent chain. Names and notes keep the numbering of the source.

One assay addresses T1, human activated protein C (human, UniProt P04070 43-197; P04070 212-461).
T1 construct: In the plasma assays aPC is generated in human plasma with Protac; also called aPC; haPC
Description: KD ELISA ranking, direct antigen coating ELISA of Fab.
B1 gave a Bmax of 1.26.

Molecule B2 showed a Bmax of 1.25. Same read-out and setting: then B3, with 1.21; and B4, with 1.04.

As for B5, the Bmax was 1.24.

In turn, B6 registered a Bmax of 0.715.

B7 gave a Bmax of 1.01. On the same count and under the same terms, then B8, with 1.21; and B9, with 1.07; and B10, with 0.96.

In turn, B11 registered a Bmax of 1.37. Still for that read-out and setting: then B12, with 1.09; and B13, with 1.41.

As to B14, the Bmax came to 0.617. Still for that read-out and setting: then B15, with 0.717.

The next assay addresses T1, human activated protein C. The assay can be described thus: direct antigen coating ELISA (KD ELISA) of Fab periplasmic extract, anti-c-myc HRP. Here is the method: Each well of 96-well plates was coated with an anti-Fab antibody in a coating buffer PBS with pH 7.4 at 4° C. The next day, the plates were blocked with casein in PBS with pH 7.4 at 25° C. for 1 hour. Then, Fab PE was added to the plates, and incubated at 25° C. for 1 hour. After the plates were washed, biotinylated antigen was added to the wells and incubated at 25° C. for 1 hour. Then, the biotinylated antigen was incubated with an SA-horseradish peroxidase (HRP) conjugate at 25° C. for 1 hour. HRP activity was detected with a tetramethylbenzidine (TMB) substrate, and the reaction was quenched with 2M HCl. The plates were read at 450 nm. […] The binding-improved mutants with unique sequences of HAPC-14 were ranked by direct antigen coating ELISA.
Each well of 96-well plates was coated with hPro1. biotin in 1×PBS buffer with pH 7.4, and incubation was carried out overnight at 4° C. The next day, the plates were blocked with casein in 1×PBS buffer with pH 7.4 at 25° C. for 1 hour. Fab PE of each mutant diluted according to one concentration was added to the plates and incubated at 25° C. for 1 hour. Then the Fab PE was incubated with goat anti-c-myc HRP conjugated at 25° C. for 1 hour. HRP activity was detected with a tetramethylbenzidine (TMB) substrate, and the reaction was quenched with 2M HCl. OD values of each plate were read at 450 nm.
For orientation: ELISA stands for enzyme-linked immunosorbent assay.
In the case of B16, the Bmax amounted to 0.278.

B17 came in with a Bmax of 0.325. Still for that read-out and setting: then B18, with 0.662; and B19, with 0.299; and B20, with 0.262.

Molecule B21 registered a Bmax of 0.567. On the same count and under the same terms, then B22, with 0.287. Same read-out and setting: then B23, with 0.193; and B24, with 0.151. The same measure, in the same setting: then B25, with 0.244; and B26, with 0.261.

For B27, the Bmax is 0.24. For the molecule B28, the Bmax stood at 0.492. On the same count and under the same terms, then B29, with 0.328.

The record behind these values is patent US20250277057A1 (OKLAHOMA MEDICAL RESEARCH FOUNDATION, published 2025).
